# Paper PMC3201875
# Experiments:
# SBP-tagged LeishIF4E-4 = experiment: pull-down
# SBP-tagged LeishIF4E-1 = experiment: pull-down
Substance,percent of the total protein in the elution fraction (SBP-tagged LeishIF4E-4) [%],percent of the total protein in the elution fraction (SBP-tagged LeishIF4E-1) [%]
LeishIF4A-1 (natural protein),3.4,3
Leishmania 4E-Interacting Protein (Leish4E-IP) (natural protein),,14
LeishIF4G-3 (natural protein),9,
